According to the DeepSol protein solubility set:

Assay: soluble on expression in E. coli; label from the status in PepcDB or PDB records

| Sequence | soluble on expression in E. coli |
| --- | --- |
| MGSDKIHHHHHHMKRKITPELSSKDWKEFCSRFHFDNDKLPLIRAIYTAMLPLVDAFAYYSIKQDLPGVSLAHYAYGLVTLGNGVDELSELYLNHEQLEEAYIADCLSLMLLSNAYEQFAKAVEEESSLYAIELSFLGDEYPLELLPEIFEHVSPDGIHLTGSNMLKPLKTAALIIKLDSQKRKNIKELCNTCANCKNLSCPSRKAPGPKLPHTYGAMQIFNIRH | not soluble |
| MLKFENVTKSFKDGNRNIEAVKDTNFEINKGDIIALVGPSGSGKSTFLTMAGALQTPTSGHILINNQDITTMKQKALAKVRMSEIGFILQATNLVPFLTVKQQFTLLKKKNKNVMSNEDYQQLMSQLGLTSLLNKLPSEISGGQKQRVAIAKALYTNPSIILADEPTAALDTENAIEVIKILRDQAKQRKKACIIVTHDERLKAYCDRSYHMKDGVLNLENETVE | not soluble |
| MEFPDLGAHCSEPSCQRLDFLPLKCDACSGIFCADHVAYAQHHCGSAYQKDIQVPVCPLCNVPVPVARGEPPDRAVGEHIDRDCRSDPAQQKRKIFTNKCERSGCRQREMMKLTCDRCGRNFCIKHRHPLDHECSGEGHQTSRAGLAAISRAQGLASTSTAPSPSRTLPSSSSSSRATPQLPTRTASPVIALQNGLSEDEALQRALELSLAEAKPQVLSSQEEDDLALAQALSASEAEYQQQQAQSRSLKPSNCSLC | soluble |
| AFKQLMFPFGMDSKMESGIVMPTTQFWNPIAINNVEAQNDFYSRENLAALKLLQKQAQEPEKLARLLEVYHESLGYNIVRRAEEAKVALSDQTAYCTGINLLSELIEVDVQRDEMIEAIESPKNKMTALVTEAVEQAGVKPDAIFMTGGSARSPILRDAVQTVLPNIPVVSGNYFGSVTAGLARWADVCFK | not soluble |
| MAHHHHHHMIFIHSLRLRHNLVSKNVERCTVFAFLDADFITAIRHKVRELKRAARRQPHRSALEVYSQERPTRHHVLPPPHYFSEKVGVDCCVLYIPEVEDFPLLDAFFFVNSNPVTLVGLRMATAGEHHTTASTVRQFTECLAAYFNGWEELSRDMSWETIYVQHADSTPMNDWQRCDVVNSDNVSKKENREIVAFWEEEVHQYLAVISSADARRGEAL | not soluble |
| MNQEVTAPKEMNQGASNDLLTTSLKNVTRLNTNDPSQMAVLTSQTIWAATHKENQPGAVILVPASEWQLGIASADFIHHPNNGPILFIEKEKIPEMTLKEIKRLNPIGTKDGTQIMVMGDVGTSALEQLKGYKVKQIKETDPAIFAKDVDKEYADITGSYPNSVIIGSSAEEGRLYTTPAVNWISHMPEPLLYTEKNKVPEATIEALKMRKDKANIYVLGPEKIVSKEVEKELSKYGKVTRISGETPTENSIAFAKFKDEKTKFGWGFTKPGHGLSFVSSKTPDLAVAGAPFSHMGKHAPVVLLEEGKASQTVYDFLASIQPKFKDDPTLGPYNHGFLLGNTSDISFETQGILDERLEIVQESGQGHGGH | not soluble |
| MGSDKIHHHHHHGPASGRVEMKGESDSLSVRHGQENALSVSDEYPEGYVPVPGIRYQANYLTGNPERLDVKAALRNVRPLKLSQLGSQLDFMVFKDVKGGIFRLIPIEEGCLGVGIGGIWLLDGNLKMIRMLFRNDVDITEENGFTNFQTKRYINPDYYEKSSRTLIGVLYDQRDKKNPKSFVRLSLKDLLSASRPLTPDDIHKRAGISGNYLLGMADGYATWTRFTNDVYTFNLRGDTLCHFTIGEKVNYPPRGNGSYRSGEQATVYHYKGCPMIIMPYGNTVYRMKDASTLEPVYELDFGTLHRATGEEVVGGADVDNAYFLSDWVETDSYVFMHVEKGYDCPYARDKKQVTLYSLIYDKRSKAFFSLPQAEKTVHPCPEPDLPDGIPFWPRKGFSEEQLATFTTGWKLSKSSPEVFKRIPALQGTEKETTSLIITLK | not soluble |
| MSLSGNYLPRNTLVESLGHAMLKLSGWKIEGQLPALDKFVVIGAHHTSNWDFVAFLAAKFVLRLNARWFGKHTLFNGPLGGLMRRWGGIPIQRHLKLNTVDQAIQAFREHREFMLIIAPEGTRKKVDRWRMGFYHIARGAGVPVVPAALDYENRRIVIGEPFWPTGNEDADLCSLIGFYRPFIPKKPHYAFLGDEGHHHHHH | soluble |
| MGSDKIHHHHHHMQKTLNTKKANLAMERAGLTQTAVAESLAVSKEAVSQWLSSKSFPRPNKLLQLGKLLGLPFDELVIKEDPFTPKVAFRKKAGTKTKDHHIEKAQEMGRFLRHLVAYLPFDTLEMPPVLKSPSCEYDYLCKVTAKVREDINVGTAECIDFSHLIRRFSELQAVVVPVMWGVKQRHENAVHIHLPDSQSTWVYLNLDTNIHDFKFWMAHELGHCLSPSLEGDNAEDFADAFAATLLYPNELAEKAYTSINAQPSPAAKIAHVVDLADQFTISPYTVLGQANKYALSTGRNEIKLSNSFHGAVTNFNKRYKNLSEALFGDAELDEHGKPSAKEYINKAETAFETPFFELLRKYLKEHDKGPGFVQTVLDMPLLDARSIHTELT | not soluble |
| MQDSRPHPHDWNVSTDEAKRIQRRLASEVTERALPDGGETVAGIDVSVRDDTAQAAVSVLRLPELDVVDEATHRCEVPFPYVPGLLSFREMPAVLPALERLHSTPDVFVTDSHGAAHPRRFGLACHLGVLLDAPAIGVAKSILVGAPQGELGPEKGSRVPLVDDGETVGTVLRTRTDVNPVYVSVGHRCTLDGAADLMLDCSPRYKIPEPTRQAHKLSRAEGAAALEHHHHHH | soluble |
| MSLYIQNLELTSYRNYDHAELQFENKVNVIIGENAQGKTNLMEAIYVLSMAKSHRTSNDKELIRWDKDYAKIEGRVMKQNGAIPMQLVISKKGKKGKVNHIEQQKLSQYVGALNTIMFAPEDLNLVKGSPQVRRRFLDMEIGQVSPVYLHDLSLYQKILSQRNHFLKQLQTRKQTDRTMLDVLTDQLVEVAAKVVVKRLQFTAQLEKWAQPIHAGISRGLEELTLKYHTALDVSDPLDLSKIGDSYQEAFSKLREKEIERGVTLSGPHRDDVLFYVNGRDVQTYGSQGQQRTTALSLKLAEIDLIHEEIGEYPILLLDDVLSELDDYRQSHLLHTIQGRVQTFVTTTSVDGIDHETLRQAGMFRVQNGALVKEGGSHHHHHH | soluble |
| AHHHHHHSSGLEVLFQGPNELNYGQLSISPIFQGGSYQLNNKSIDISSLLLDKLSGESQTVVMKFKADKPNSLQALFGLSNSKAGFKNNYFSIFMRDSGEIGVEIRDAQKGINYLFSRPASLWGKHKGQAVENTLVFVSDSKDKTYTMYVNGIEVFSETVDTFLPISNINGIDKATLGAVNREGKEHYLAKGSIDEISLFNKAISDQEVSTIPLSNPFQLIFQSGDSTQANYFRIPTLYTLSSGRVLSSIDARYGGTHDSKSKINIATSYSDDNGKTWSEPIFAMKFNDYEEQLVYWPRDNKLKNSQISGSASFIDSSIVEDKKSGKTILLADVMPAGIGNNNANKADSGFKEINGHYYLKLKKNGDNDFRYTVRENGVVYNETTNKPTNYTINDKYEVLEGGKSLTVEQYSVDFDSGSLRERHNGKQVPMNVFYKDSLFKVTPTNYIAMTTSQNRGESWEQFKLLPPFLGEKHNGTYLCPGQGLALKSSNRLIFATYTSGELTYLISDDSGQTWKKSSASIPFKNATAEAQMVELRDGVIRTFFRTTTGKIAYMTSRDSGETWSKVSYIDGIQQTSYGTQVSAIKYSQLIDGKEAVILSTPNSRSGRKGGQLVVGLVNKEDDSIDWKYHYDIDLPSYGYAYSAITELPNHHIGVLFEKYDSWSRNELHLSNVVQYIDLEINDLTK | soluble |
| MRKILITGGAGFIGSALVRYIINETSDAVVVVDKLTYAGNLMSLAPVAQSERFAFEKVDICDRAELARVFTEHQPDCVMHLAAESHVDRSIDGPAAFIETNIVGTYTLLEAARAYWNALTEDKKSAFRFHHISTDEVYGDLHSTDDFFTETTPYAPSSPYSASKASSDHLVRAWLRTYGLPTLITNCSNNYGPYHFPEKLIPLMILNALAGKSLPVYGNGQQIRDWLYVEDHARALYCVATTGKVGETYNIGGHNERKNLDVVETICELLEELAPNKPHGVAHYRDLITFVADRPGHDLRYAIDASKIARELGCVPQETFESGMRKTVQWYLANESWWKQVQDGSYQGERLGLKG | soluble |
| AIAARPPPDPLYILRGSGASVNALHFCCDGDGPPLLYSGSGKGAVHVWNLSTRRAERVLESHAGNSVIWLNTFNNSRSCLISQGRDMRVCVWDLSEGRSAVTDSLHTGSVGFCQCSLLGSRLGSTLLAHPTQHMEEVSVVEMSSWTQVCSLKPDSNLGMLMSMKMWQADSGPVLCAGYEDGSVVLWDVSHRRPFSLLKVHPEPVMSLDVDVCRQKGISGSSENILQSWRLDNQQSLQMHDSIQMTNPGVSQLRIRADGKILASAGWDNNIRVFGWKKLKPLAVLQHHTDMVNSVAFSDHQDPTQRLLAAGSKDQRISVWSIYSES | soluble |
